Assay results from PMC11931385, “Structural and functional analysis of cancer-associated missense variants in the retinoblastoma protein pocket domain” (The Journal of Biological Chemistry, 2025).
Positions count from the first letter of the chain named. Numbers in names are those of the source. No end group written: not given here. TMR = tetramethyl rhodamine dye

Columns and labels:
Experiment in all cases: fluorescence polarisation; 25 °C; unlabeled Rb^P titrated against 1.5 nM TMR-E2F1^TD or 7.5 nM TMR-E7^LxCxE; 25 mM Tris pH 8.0, 200 mM NaCl, 1 mM DTT, 0.1% Tween-20; 2 min incubation; quadratic fit; apparent Kd for the variants, Kd for WT
Details in all cases: both partners purified
[1] = biological target: T1, Rb^P T687I (human, UniProt P06400 380-788, T687I)
T1 construct: also called variant 59
T1 sequence (looked up): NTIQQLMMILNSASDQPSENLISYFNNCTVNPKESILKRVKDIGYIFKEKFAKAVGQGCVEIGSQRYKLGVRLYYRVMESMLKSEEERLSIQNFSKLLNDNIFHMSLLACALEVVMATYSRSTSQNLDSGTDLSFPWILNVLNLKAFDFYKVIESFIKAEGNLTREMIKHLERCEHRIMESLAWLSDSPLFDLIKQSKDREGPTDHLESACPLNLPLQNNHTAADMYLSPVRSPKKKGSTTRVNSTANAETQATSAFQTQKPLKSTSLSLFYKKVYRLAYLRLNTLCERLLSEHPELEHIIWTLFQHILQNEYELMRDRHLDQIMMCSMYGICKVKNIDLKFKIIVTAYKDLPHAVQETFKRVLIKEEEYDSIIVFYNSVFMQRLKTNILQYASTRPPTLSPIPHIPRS

[2] = biological target: T2, Rb^P H673Y (human, UniProt P06400 380-788, H673Y)
T2 construct: also called variant 55
T2 sequence (looked up): T1 sequence (looked up) with H294Y, I308T

[3] = biological target: T3, Rb^P H555Y (human, UniProt P06400 380-788, H555Y)
T3 construct: also called variant 29
T3 sequence (looked up): T1 sequence (looked up) with H176Y, I308T

[4] = biological target: T4, Rb^P E675Q (human, UniProt P06400 380-788, E675Q)
T4 construct: also called variant 56
T4 sequence (looked up): T1 sequence (looked up) with E296Q, I308T

[5] = biological target: T5, Rb^P Y606C (human, UniProt P06400 380-788, Y606C)
T5 construct: also called variant 37
T5 sequence (looked up): T1 sequence (looked up) with Y227C, I308T

B1: TMR-E2F1^TD, peptide of the E2F1 transactivation domain (peptide)
peptide: {TMR}-GEGIRDLFDCDFGDLTPLD
notes: also called E2F^TD; source: synthetic peptide, bought: GenScript
- Kd [1]: 20 nM
- Kd [2]: 26 nM
- Kd [3]: 158 nM
- Kd [4]: 35 nM
- Kd [5]: 15 nM

B2: TMR-E7^LxCxE, LxCxE peptide of the E7 oncoprotein from HPV (peptide)
peptide: DLYCYEQLN
modifications: also: TMR label, position not given here
notes: source: synthetic peptide, bought: GenScript
- Kd [1]: 13 nM
- Kd [2]: 10 nM
- Kd [3]: 8 nM
- Kd [4]: 20 nM
- Kd [5]: 7 nM
